Results on one substance are retold here after publication PMC10592010.

The target of this test is EGFP-tagged full-length AR pQ69 mutant (GFP-ARpQ69) (human) (UniProt P10275). The test is described as follows: live-cell single-particle tracking.

As to “Halo-tagged AR NTD pQ69 with NLS (Halo-ARNTDpQ69-NLS) (from UniProt P10275-1 1-538) (domain or fragment)”, the residence time (RT) was determined as 16 s.
